Experiments:
[1] = molecular target: the molecule itself; assay: SEC; gel filtration of DDX21 del-C (1-710) and del-NC (188-710), data not shown; final SEC buffer of del-C with 200 mM NaCl
[2] = molecular target: T1, DDX21 helicase core (D1D2, DDX21-delNC) (human, UniProt Q9NR30 188-563); assay: crystal structure; AMPPNP, Mg2+; 2.24 A, 7 nt visible; MST: 50 mM Tris pH 7.5, 50 mM KCl, 2 mM MgCl2, 1 mM TCEP, 0.01% NP-40, 0.05 mg/mL BSA, 2 mM AMPPNP, 50 nM FAM-RNA; temperature not given; crosslinking buffer not in material; details: protein: recombinant; tags: N-terminal His-SUMO, removed by ULP1; single strand
T1 sequence: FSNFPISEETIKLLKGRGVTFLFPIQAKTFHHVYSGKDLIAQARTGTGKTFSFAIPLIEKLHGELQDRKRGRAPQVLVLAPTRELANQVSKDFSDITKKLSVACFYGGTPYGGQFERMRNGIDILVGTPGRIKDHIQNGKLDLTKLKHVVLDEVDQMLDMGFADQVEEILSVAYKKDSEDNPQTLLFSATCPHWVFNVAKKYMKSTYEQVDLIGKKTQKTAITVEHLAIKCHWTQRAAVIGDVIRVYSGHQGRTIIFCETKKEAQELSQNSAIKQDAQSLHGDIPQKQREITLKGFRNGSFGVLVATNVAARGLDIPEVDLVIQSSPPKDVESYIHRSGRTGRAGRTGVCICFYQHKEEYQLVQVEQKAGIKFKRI

[3] = molecular target: T2, DDX21 full-length (human, UniProt Q9NR30 1-783); assay: UV crosslinking/MST/SEC (method for this pair not specified); MST: 50 mM Tris pH 7.5, 50 mM KCl, 2 mM MgCl2, 1 mM TCEP, 0.01% NP-40, 0.05 mg/mL BSA, 2 mM AMPPNP, 50 nM FAM-RNA; temperature not given; crosslinking buffer not in material; details: protein: recombinant; tags: N-terminal His-SUMO, removed by ULP1; chain copies: 3; single strand
T2 sequence: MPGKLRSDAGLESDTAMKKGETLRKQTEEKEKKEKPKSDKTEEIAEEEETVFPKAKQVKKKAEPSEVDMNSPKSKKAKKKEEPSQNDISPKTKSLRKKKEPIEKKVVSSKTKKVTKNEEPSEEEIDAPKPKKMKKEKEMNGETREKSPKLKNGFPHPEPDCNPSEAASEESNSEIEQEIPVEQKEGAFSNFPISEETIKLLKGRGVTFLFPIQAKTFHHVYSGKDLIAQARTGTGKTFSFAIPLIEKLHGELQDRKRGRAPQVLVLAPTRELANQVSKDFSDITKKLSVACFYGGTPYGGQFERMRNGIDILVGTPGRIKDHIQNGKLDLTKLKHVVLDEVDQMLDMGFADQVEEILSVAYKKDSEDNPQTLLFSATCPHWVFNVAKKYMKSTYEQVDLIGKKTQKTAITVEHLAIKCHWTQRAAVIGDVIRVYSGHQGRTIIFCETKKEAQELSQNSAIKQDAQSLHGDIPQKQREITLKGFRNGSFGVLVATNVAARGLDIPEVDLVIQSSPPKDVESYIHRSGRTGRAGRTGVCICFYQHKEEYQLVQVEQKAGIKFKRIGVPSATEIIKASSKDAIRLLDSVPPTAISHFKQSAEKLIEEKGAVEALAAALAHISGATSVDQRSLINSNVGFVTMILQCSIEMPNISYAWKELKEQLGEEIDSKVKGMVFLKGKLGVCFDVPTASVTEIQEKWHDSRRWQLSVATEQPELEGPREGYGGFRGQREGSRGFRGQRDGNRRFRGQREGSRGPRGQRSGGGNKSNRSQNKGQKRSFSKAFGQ

[4] = molecular target: the molecule itself; assay: SAXS; beamline BL19U2, 1-3 mg/mL protein; 20 mM Tris-HCl pH 7.5, 1 mM TCEP, 100 mM NaCl for DDX21 (188-563), 500 mM NaCl for DDX21 (1-783); ab initio envelopes (GASBOR)

B1: DDX21 del-C (1-710) (domain or fragment, human, UniProt Q9NR30-1 1-710, looked up)
chain: MPGKLRSDAGLESDTAMKKGETLRKQTEEKEKKEKPKSDKTEEIAEEEETVFPKAKQVKKKAEPSEVDMNSPKSKKAKKKEEPSQNDISPKTKSLRKKKEPIEKKVVSSKTKKVTKNEEPSEEEIDAPKPKKMKKEKEMNGETREKSPKLKNGFPHPEPDCNPSEAASEESNSEIEQEIPVEQKEGAFSNFPISEETIKLLKGRGVTFLFPIQAKTFHHVYSGKDLIAQARTGTGKTFSFAIPLIEKLHGELQDRKRGRAPQVLVLAPTRELANQVSKDFSDITKKLSVACFYGGTPYGGQFERMRNGIDILVGTPGRIKDHIQNGKLDLTKLKHVVLDEVDQMLDMGFADQVEEILSVAYKKDSEDNPQTLLFSATCPHWVFNVAKKYMKSTYEQVDLIGKKTQKTAITVEHLAIKCHWTQRAAVIGDVIRVYSGHQGRTIIFCETKKEAQELSQNSAIKQDAQSLHGDIPQKQREITLKGFRNGSFGVLVATNVAARGLDIPEVDLVIQSSPPKDVESYIHRSGRTGRAGRTGVCICFYQHKEEYQLVQVEQKAGIKFKRIGVPSATEIIKASSKDAIRLLDSVPPTAISHFKQSAEKLIEEKGAVEALAAALAHISGATSVDQRSLINSNVGFVTMILQCSIEMPNISYAWKELKEQLGEEIDSKVKGMVFLKGKLGVCFDVPTASVTEIQEKWHDSRRWQLSVATE
notes: human DDX21, residues 1-710; source: E. coli BL21-CodonPlus (DE3)-RIL, purified (Ni-NTA, ULP1 cleavage, Ni-NTA, Superdex 200); not shown: His-sumo, N-terminal, cleaved
In the case of B1, the “stoichiometry N” value [1] is reported as 5.

UUUUUUUUUUUUUUU (ssRNA) [U15]: binds [2]; binds [3].

B2: full-length DDX21 (1-783) (enzyme, human, UniProt Q9NR30-1 1-783, looked up)
chain: MPGKLRSDAGLESDTAMKKGETLRKQTEEKEKKEKPKSDKTEEIAEEEETVFPKAKQVKKKAEPSEVDMNSPKSKKAKKKEEPSQNDISPKTKSLRKKKEPIEKKVVSSKTKKVTKNEEPSEEEIDAPKPKKMKKEKEMNGETREKSPKLKNGFPHPEPDCNPSEAASEESNSEIEQEIPVEQKEGAFSNFPISEETIKLLKGRGVTFLFPIQAKTFHHVYSGKDLIAQARTGTGKTFSFAIPLIEKLHGELQDRKRGRAPQVLVLAPTRELANQVSKDFSDITKKLSVACFYGGTPYGGQFERMRNGIDILVGTPGRIKDHIQNGKLDLTKLKHVVLDEVDQMLDMGFADQVEEILSVAYKKDSEDNPQTLLFSATCPHWVFNVAKKYMKSTYEQVDLIGKKTQKTAITVEHLAIKCHWTQRAAVIGDVIRVYSGHQGRTIIFCETKKEAQELSQNSAIKQDAQSLHGDIPQKQREITLKGFRNGSFGVLVATNVAARGLDIPEVDLVIQSSPPKDVESYIHRSGRTGRAGRTGVCICFYQHKEEYQLVQVEQKAGIKFKRIGVPSATEIIKASSKDAIRLLDSVPPTAISHFKQSAEKLIEEKGAVEALAAALAHISGATSVDQRSLINSNVGFVTMILQCSIEMPNISYAWKELKEQLGEEIDSKVKGMVFLKGKLGVCFDVPTASVTEIQEKWHDSRRWQLSVATEQPELEGPREGYGGFRGQREGSRGFRGQRDGNRRFRGQREGSRGPRGQRSGGGNKSNRSQNKGQKRSFSKAFGQ
notes: human DDX21, residues 1-783, codon-optimised synthetic gene; The text says it might be a trimer (SAXS, gel filtration); also called WT DDX21; RNA helicase DDX21; source: E. coli BL21-CodonPlus (DE3)-RIL, purified (Ni-NTA, ULP1 cleavage, Ni-NTA, Superdex 200); not shown: His-sumo, N-terminal, cleaved
In the case of B2, the “stoichiometry N” value [4] is reported as 3.

B3: DDX21 del-NC (188-710) (domain or fragment, human, UniProt Q9NR30-1 188-710, looked up)
chain: FSNFPISEETIKLLKGRGVTFLFPIQAKTFHHVYSGKDLIAQARTGTGKTFSFAIPLIEKLHGELQDRKRGRAPQVLVLAPTRELANQVSKDFSDITKKLSVACFYGGTPYGGQFERMRNGIDILVGTPGRIKDHIQNGKLDLTKLKHVVLDEVDQMLDMGFADQVEEILSVAYKKDSEDNPQTLLFSATCPHWVFNVAKKYMKSTYEQVDLIGKKTQKTAITVEHLAIKCHWTQRAAVIGDVIRVYSGHQGRTIIFCETKKEAQELSQNSAIKQDAQSLHGDIPQKQREITLKGFRNGSFGVLVATNVAARGLDIPEVDLVIQSSPPKDVESYIHRSGRTGRAGRTGVCICFYQHKEEYQLVQVEQKAGIKFKRIGVPSATEIIKASSKDAIRLLDSVPPTAISHFKQSAEKLIEEKGAVEALAAALAHISGATSVDQRSLINSNVGFVTMILQCSIEMPNISYAWKELKEQLGEEIDSKVKGMVFLKGKLGVCFDVPTASVTEIQEKWHDSRRWQLSVATE
notes: human DDX21, residues 188-710
In the case of B3, the “stoichiometry N” value [1] is reported as 2.

From publication PMC7375243, “Structural Basis of Human Helicase DDX21 in RNA Binding, Unwinding, and Antiviral Signal Activation” (Advanced Science, 2020)
